Data from US20110038920A1, “WOUND HEALING COMPOSITIONS AND TREATMENTS” (priority 2008, published 2011).

System: OPN expression in Swiss 3T3 fibroblasts
Experiment: Induction of OPN expression in fibroblasts by growth factors/cytokines (Western blot)
Type: cell-based
Details: 8 h; PDGF-BB 20, EGF 100, TGFβ1 10, TGFβ3 10, IL-6 50, TNFα 10 ng/ml
Protocol: Protein samples (20 μg; collected in T-PER® Reagent; PIERCE Biotechnology) were separated on Tris-Glycine Gels (Invitrogen), transferred to PVDF, and blotted according to standard protocols (antibody details are provided above).
Swiss 3T3, J774.1 macrophages, and RBL mast cells were cultured in DMEM+10% fetal calf serum. Primary neutrophils were harvested by peritoneal lavage 4 h post-thioglycollate-induced peritonitis, and primary macrophages were derived from mouse bone marrow and activated with LPS (500 ng/ml).

B1: TGFβ3: growth factor/cytokine, BioVision (protein, UniProt P10600 301-412, looked up)
Transforming growth factor …: ALDTNYCFRNLEENCCVRPLYIDFRQDLGWKWVHEPKGYYANFCSGPCPYLRSADTTHSTVLGLYNTLNPEASASPCCVPQDLEPLTILYYVGRTPKVEQLSNMVVKSCKCS
modifications: Transforming growth factor beta-3
notes: growth factor/cytokine, BioVision
  ability to upregulate OPN expression in Swiss 3T3s: not
